Literature values in patent publication US20260007686A1, “COMPOSITIONS AND METHODS FOR IMPROVING VISION” (Ripple Therapeutics Corporation, priority 2022, published 2026).

Legend:
[1] = test system: macular edema in individuals with diabetic macular edema (DME); conditions: literature studies (Boyer et al.; Callanan et al.)
[2] = test system: visual acuity of individuals with diabetic macular edema (DME); conditions: literature studies (Boyer et al.; Callanan et al.)

B1: ranibizumab (antibody, chains of the INN, looked up, V domains shown)
VH: EVQLVESGGGLVQPGGSLRLSCAASGYDFTHYGMNWVRQAPGKGLEWVGWINTYTGEPTYAADFKRRFTFSLDTSKSTAYLQMNSLRAEDTAVYYCAKYPYYYGTSHWYFDVWGQGTLVTVSS
VL: DIQLTQSPSSLSASVGDRVTITCSASQDISNYLNWYQQKPGKAPKVLIYFTSSLHSGVPSRFSGSGSGTDFTLTISSLQPEDFATYYCQQYSTVPWTFGQGTKVEIK
modifications: Fab
notes: ranibizumab injection, a clinically approved anti-VEGF intravitreal injection
In the case of B1, the “Mean Change in CST at M3” value ([1]; month 3) is listed as −140 μm, the “Mean Change in CST at M6” value ([1]; month 6) is listed as −133 μm and the “Mean Change in BCVA at M3” value ([2]; month 3) is listed as “+6 letters”. For the same molecule, the “Mean Change in BCVA at M6” value ([2]; month 6) was “+8 letters”.
